Measured values reported in PMC3919601.

Target: 80S ribosomes from yeast cells expressing wild-type rpL10 (S. cerevisiae) (UniProt P41805)
Assay: steady-state binding of [32P]-Sdo1p; ribosomes held on cysteine-charged sulfolink resin, unbound Sdo1p in the flow-through counted; 2 pmol ribosomes with 0.25–32 pmol Sdo1p and 100 µg polyU in 50 mM Tris-(OAc)2 pH 7.5, 50 mM NH4(OAc)2, 10 mM Mg(OAc)2, 2 mM DTT, 50 µl, 30°C 20 min

Chain of UniProt P41805 (P41805 whole entry, looked up): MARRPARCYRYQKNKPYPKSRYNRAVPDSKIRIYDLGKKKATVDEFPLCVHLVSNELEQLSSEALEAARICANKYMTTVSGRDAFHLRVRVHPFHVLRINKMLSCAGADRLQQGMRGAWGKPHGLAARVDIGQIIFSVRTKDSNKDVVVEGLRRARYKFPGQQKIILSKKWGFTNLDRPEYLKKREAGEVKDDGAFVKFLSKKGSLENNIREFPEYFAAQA

stoichiometry N: 1
B1: Sdo1p with a C-terminal 6× histidine tag and the phosphorylatable kemptide (natural protein)
chain: MPINQPSGQIKLTNVSLVRLKKARKRFEVACYQNKVQDYRKGIEKDLDEVLQIHQVFMNVSKGLVANKEDLQKCFGTTNVDDVIEEIMHKGEIQLSEKERQLMLNKVNNEMLTIVSAKCINPVSKKRYPPTMIHKALQELKFSPVINKPAKLQALEAIKLLVSKQIIPIVRAKMKVKVAISEPSRQPELIEKISKLIASSPGESTKPELDPWTCTGLIDPVNYRDLMTLCDKKGTVQVLDMAVIDNTTHN
modifications: 32P-phosphate on the kemptide (labelled with PKA and [32P]-γ-ATP, 40–60% label incorporation)
